Measurements reported in patent publication US11278600B2, “Human alpha-galactosidase variants” (Codexis, Inc., priority 2014, dated 2022).

Tests used:
Assay type in all cases: biochemical
[1] = HTP-analysis of yeast culture supernatants, no challenge (MUGal hydrolysis); settings: activity of the variant/activity of WT GLA (SEQ ID NO: 5), yeast supernatant
In short: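 GLA variants expressed in yeast INVSc1, secreted into SD-Ura broth over 66-84 h at 30° C; clarified supernatants tested without challenge. Supernatant mixed with McIlvaine buffer pH 4.8 and 2 mM MUGal (citrate/KCl, pH 4.6), 37° C for 30-180 min, carbonate-quenched, fluorescence Ex 355/Em 448 nm.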

[2] = HTP-analysis of supernatants pretreated with acid (MUGal hydrolysis); settings: challenge at pH 4.2; activity of the variant/activity of WT GLA (SEQ ID NO: 5); yeast supernatant
In short: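 MUGal hydrolysis was tracked by fluorescence (Ex 355 nm, Em 448 nm) after a 30-180 min reaction at 37° C. in pH 4.8 McIlvaine/citrate buffer, stopped with 1 M sodium carbonate. Beforehand, yeast (INVSc1) culture supernatants carrying GLA variants were held 1-3 h at 37° C. in acidic McIlvaine buffer, pH 3.3-4.3.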

[3] = HTP-analysis of supernatants pretreated with base (MUGal hydrolysis); settings: challenge at pH 7.1; activity of the variant/activity of WT GLA (SEQ ID NO: 5); yeast supernatant
In short: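 Supernatants from INVSc1 yeast expressing GLA variants (SD-Ura, 66-84 h, 30° C) were mixed with McIlvaine buffer pH 7.0-8.2 or 200 mM sodium bicarbonate pH 9.1-9.7 and held 1-18 h at 37° C. Residual activity was then measured on MUGal at pH 4.8/4.3, 37° C, 30-180 min, by fluorescence (Ex 355/Em 448 nm).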

B1: 74 (protein)
chain: LDNGLARTPTMGWLHWERFMCNLDCQEEPDSCISEKLFMEMAELMVSEGWKDAGYEYLCIDDCWMAPQRDSEGRLQADPQRFPHGIRQLANYVHSKGLKLGIYADVGNKTCAGFPGSFGYYDIDAQTFADWGVDLLKFDGCYCDSLENLADGYKHMSLALNRTGRSIVYSCEWPLYMWPFQKPNYTEIRQYCNHWRNFADIDDSWMSIKSILDWTSFNQERIVDVAGPGGWNDPDMLVIGNFGLSWNQQVTQMALWAIMAAPLFMSNDLRHISPQAKALLQDKDVIAINQDPLGKQGYQLRQGDNFEVWERPLSGLAWAVAMINRQEIGGPRSYTIAVASLGKGVACNPACFITQLLPVKRKLGFYEWTSRLRSHINPTGTVLLQLENTMQMSKDLLL
modifications: Synthetic Polypeptide sequence of Variant No. 74 of mature Human GLA
- Relative Activity of GLA Variants After No Challenge (NC) [1]: + (+ = 0.5 to 1.5 relative activity over WT GLA (SEQ ID NO: 5))
- Relative Activity of GLA Variants After Challenge at pH 4.2 [2]: +++ (+++ = >2.5 relative activity over WT GLA (SEQ ID NO: 5))
- Relative Activity of GLA Variants After Challenge at pH 7.1 [3]: ++ (++ = >1.5 to 2.5 relative activity over WT GLA (SEQ ID NO: 5))

B2: 78 (protein)
chain: LDNGLARTPTMGWLHWERFMCNLDCQEEPDSCISEKLFMEMAELMVSEGWKDAGYEYLCIDDCWMAPQRDSEGRLQADPQRFPHGIRQLANYVHSKGLKLGIYADVGNKTCAGFPGSFGYYDIDAQTFADWGVDLLKFDGCYCDSLENLADGYKHMSLALNRTGRSIVYSCEWPLYMWPFQKPNYTEIRQYCNHWRNFADIDDSWKSIKSILDWTSFNQERIVDVAGPGGWNDPDMLVIGNFGLSWNQQVTQMALWAIMAAPLFMSNDLRHISPQAKALLQDKDVIAINQDPLGKQGYQLRQGDNFEVWERPLSGLAWAVAMINRQEIGGPRSYTIAVASLGDGVACNPACFITQLLPVKRKLGFYEWTSRLRSHINPTGTVLLQLENTMQMSKDLLL
modifications: Synthetic Polypeptide sequence of Variant No. 78 of mature Human GLA
- Relative Activity of GLA Variants After No Challenge (NC) [1]: ++ (++ = >1.5 to 2.5 relative activity over WT GLA (SEQ ID NO: 5))
- Relative Activity of GLA Variants After Challenge at pH 4.2 [2]: ++ (++ = >1.5 to 2.5 relative activity over WT GLA (SEQ ID NO: 5))
- Relative Activity of GLA Variants After Challenge at pH 7.1 [3]: ++ (++ = >1.5 to 2.5 relative activity over WT GLA (SEQ ID NO: 5))

B3: 75 (protein)
chain: LDNGLARTPTMGWLHWERFMCNLDCQEEPDSCISEKLFMEMAELMVSEGWKDAGYEYLCIDDCWMAPQRDSEGRLQADPQRFPHGIRQLANYVHSKGLKLGIYADVGNKTCAGFPGSFGYYDIDAQTFADWGVDLLKFDGCYCDSLENLADGYKHMSLALNRTGRSIVYSCEWPLYMWPFQKPNYTEIRQYCNHWRNFADIDDSWQSIKSILDWTSFNQERIVDVAGPGGWNDPDMLVIGNFGLSWNQQVTQMALWAIMAAPLFMSNDLRHISPQAKALLQDKDVIAINQDPLGKQGYQLRQGDNFEVWERPLSGLAWAVAMINRQEIGGPRSYTIAVASLGKGVACNPACFITQLLPVKRKLGFYEWTSRLRSHINPTGTVLLQLENTMQMSKDLLL
modifications: Synthetic Polypeptide sequence of Variant No. 75 of mature Human GLA
- Relative Activity of GLA Variants After No Challenge (NC) [1]: + (+ = 0.5 to 1.5 relative activity over WT GLA (SEQ ID NO: 5))
- Relative Activity of GLA Variants After Challenge at pH 4.2 [2]: +++ (+++ = >2.5 relative activity over WT GLA (SEQ ID NO: 5))
- Relative Activity of GLA Variants After Challenge at pH 7.1 [3]: ++ (++ = >1.5 to 2.5 relative activity over WT GLA (SEQ ID NO: 5))

B4: 80 (protein)
chain: LDNGLARTPTMGWLHWERFMCNLDCQEEPDSCISEKLFMEMAELMVSEGWKDAGYEYLCIDDCWMAPQRDSEGRLQADPQRFPHGIRQLANYVHSKGLKLGIYADVGNKTCAGFPGSFGYYDIDAQTFADWGVDLLKFDGCYCDSLENLADGYKHMSLALNRTGRSIVYSCEWPLYMWPFQKPNYTEIRQYCNHWRNFADIDDSWKSIKSILDWTSFNQERIVDVAGPGGWNDPDMLVIGNFGLSWNQQVTQMALWAIMAAPLFMSNDLRHISPQAKALLQDKDVIAINQDPLGKQGYQLRQGDNFEVWERPLSGLAWAVAMINRQEIGGPRSYTIAVASLGKGVACNPACFITQLLPVKRQLGFYEWTSRLRSHINPTGTVLLQLENTMQMSKDLLL
modifications: Synthetic Polypeptide sequence of Variant No. 80 of mature Human GLA
- Relative Activity of GLA Variants After No Challenge (NC) [1]: + (+ = 0.5 to 1.5 relative activity over WT GLA (SEQ ID NO: 5))
- Relative Activity of GLA Variants After Challenge at pH 4.2 [2]: + (+ = 0.5 to 1.5 relative activity over WT GLA (SEQ ID NO: 5))
- Relative Activity of GLA Variants After Challenge at pH 7.1 [3]: + (+ = 0.5 to 1.5 relative activity over WT GLA (SEQ ID NO: 5))

B5: 77 (protein)
chain: LDNGLARTPTMGWLHWERFMCNLDCQEEPDSCISEKLFMEMAELMVSEGWKDAGYEYLCIDDCWMAPQRDSEGRLQADPQRFPHGIRQLANYVHSKGLKLGIYADVGNKTCAGFPGSFGYYDIDAQTFADWGVDLLKFDGCYCDSLENLADGYKHMSLALNRTGRSIVYSCEWPLYMWPFQKPNYTEIRQYCNHWRNFADIDDSWTSIKSILDWTSFNQERIVDVAGPGGWNDPDMLVIGNFGLSWNQQVTQMALWAIMAAPLFMSNDLRHISPQAKALLQDKDVIAINQDPLGKQGYQLRQGDNFEVWERPLSGLAWAVAMINRQEIGGPRSYTIAVASLGKGVACNPACFITQLLPSKRKLGFYEWTSRLRSHINPTGTVLLQLENTMQMSKDLLL
modifications: Synthetic Polypeptide sequence of Variant No. 77 of mature Human GLA
- Relative Activity of GLA Variants After No Challenge (NC) [1]: + (+ = 0.5 to 1.5 relative activity over WT GLA (SEQ ID NO: 5))
- Relative Activity of GLA Variants After Challenge at pH 4.2 [2]: ++ (++ = >1.5 to 2.5 relative activity over WT GLA (SEQ ID NO: 5))
- Relative Activity of GLA Variants After Challenge at pH 7.1 [3]: + (+ = 0.5 to 1.5 relative activity over WT GLA (SEQ ID NO: 5))

B6: 79 (protein)
chain: LDNGLARTPTMGWLHWERFMCNLDCQEEPDSCISEKLFMEMAELMVSEGWKDAGYEYLCIDDCWMAPQRDSEGRLQADPQRFPHGIRQLANYVHSKGLKLGIYADVGNKTCAGFPGSFGYYDIDAQTFADWGVDLLKFDGCYCDSLENLADGYKHMSLALNRTGRSIVYSCEWPLYMWPFQKPNYTEIRQYCNHWRNFADIDDSWKSIKSILDWTSFNQERIVDVAGPGGWNDPDMLVIGNFGLSWNQQVTQMALWAIMAAPLFMSNDLRHISPQAKALLQDKDVIAINQDPLGKQGYQLRQGDNFEVWERPLSGLAWAVAMINRQEIGGPRSYTIAVASLGGGVACNPACFITQLLPVKRKLGFYEWTSRLRSHINPTGTVLLQLENTMQMSKDLLL
modifications: Synthetic Polypeptide sequence of Variant No. 79 of mature Human GLA
- Relative Activity of GLA Variants After No Challenge (NC) [1]: ++ (++ = >1.5 to 2.5 relative activity over WT GLA (SEQ ID NO: 5))
- Relative Activity of GLA Variants After Challenge at pH 4.2 [2]: ++ (++ = >1.5 to 2.5 relative activity over WT GLA (SEQ ID NO: 5))
- Relative Activity of GLA Variants After Challenge at pH 7.1 [3]: ++ (++ = >1.5 to 2.5 relative activity over WT GLA (SEQ ID NO: 5))

B7: 81 (protein)
chain: LDNGLARTPTMGWLHWERFMCNLDCQEEPDSCISEKLFMEMAELMVSEGWKDAGYEYLCIDDCWMAPQRDSEGRLQADPQRFPHGIRQLANYVHSKGLKLGIYADVGNKTCAGFPGSFGYYDIDAQTFADWGVDLLKFDGCYCDSLENLADGYKHMSLALNRTGRSIVYSCEWPLYMWPFQKPNYTEIRQYCNHWRNFADIDDSWKSIKSILDWTSFNQERIVDVAGPGGWNDPDMLVIGNFGLSWNQQVTQMALWAIMAAPLFMSNDLRHISPQAKALLQDKDVIAINQDPLGKQGYQLRQGDNFEVWERPLSGLAWAVAMINRQEIGGPRSYTIAVASLGKGVACNPACFITQLLPVKRRLGFYEWTSRLRSHINPTGTVLLQLENTMQMSKDLLL
modifications: Synthetic Polypeptide sequence of Variant No. 81 of mature Human GLA
- Relative Activity of GLA Variants After No Challenge (NC) [1]: + (+ = 0.5 to 1.5 relative activity over WT GLA (SEQ ID NO: 5))
- Relative Activity of GLA Variants After Challenge at pH 4.2 [2]: + (+ = 0.5 to 1.5 relative activity over WT GLA (SEQ ID NO: 5))
- Relative Activity of GLA Variants After Challenge at pH 7.1 [3]: + (+ = 0.5 to 1.5 relative activity over WT GLA (SEQ ID NO: 5))

B8: 76 (protein)
chain: LDNGLARTPTMGWLHWERFMCNLDCQEEPDSCISEKLFMEMAELMVSEGWKDAGYEYLCIDDCWMAPQRDSEGRLQADPQRFPHGIRQLANYVHSKGLKLGIYADVGNKTCAGFPGSFGYYDIDAQTFADWGVDLLKFDGCYCDSLENLADGYKHMSLALNRTGRSIVYSCEWPLYMWPFQKPNYTEIRQYCNHWRNFADIDDSWRSIKSILDWTSFNQERIVDVAGPGGWNDPDMLVIGNFGLSWNQQVTQMALWAIMAAPLFMSNDLRHISPQAKALLQDKDVIAINQDPLGKQGYQLRQGDNFEVWERPLSGLAWAVAMINRQEIGGPRSYTIAVASLGKGVACNPACFITQLLPVKRKLGFYEWTSRLRSHINPTGTVLLQLENTMQMSLKDLL
modifications: Synthetic Polypeptide sequence of Variant No. 76
- Relative Activity of GLA Variants After No Challenge (NC) [1]: + (+ = 0.5 to 1.5 relative activity over WT GLA (SEQ ID NO: 5))
- Relative Activity of GLA Variants After Challenge at pH 4.2 [2]: +++ (+++ = >2.5 relative activity over WT GLA (SEQ ID NO: 5))
- Relative Activity of GLA Variants After Challenge at pH 7.1 [3]: ++ (++ = >1.5 to 2.5 relative activity over WT GLA (SEQ ID NO: 5))
